Assay results reported in US20160319287A1.
No end group written: not given here. FI = 5(6)-carboxyfluorescein

Columns and labels:
Assay in all cases: cell-based or functional assay
[1] = target: MBP-Int^C-TycB1 with the AceL-TerL MX1 mutant (M1^C)
[2] = target: M1^C-Trx-H6 (AceL-TerL Int^C mutant M1: N46D, L55Q) [thioredoxin: P0AA25]
[3] = target: M2^C-Trx-H6 (AceL-TerL Int^C mutant M2: S38G, N46I, N54D, L55Q) [thioredoxin: P0AA25]
Chain of M2^C-Trx-H6 (AceL-TerL Int^C mutant M2: S38G, N46I, N54D, L55Q) [thioredoxin: P0AA25] (P0AA25 other isoform, or with tags, fused parts or gaps S38G N46I N54D L55Q S38G N46I N54D L55Q): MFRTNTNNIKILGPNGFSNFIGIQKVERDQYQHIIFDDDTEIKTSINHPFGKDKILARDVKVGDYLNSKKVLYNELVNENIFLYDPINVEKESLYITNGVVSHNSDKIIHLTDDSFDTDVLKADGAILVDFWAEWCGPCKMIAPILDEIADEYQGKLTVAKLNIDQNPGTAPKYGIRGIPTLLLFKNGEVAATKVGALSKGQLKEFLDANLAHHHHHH

Chain of MBP-Int^C-TycB1 with the AceL-TerL MX1 mutant (M1^C) (main, as listed by the source, stated change not applied): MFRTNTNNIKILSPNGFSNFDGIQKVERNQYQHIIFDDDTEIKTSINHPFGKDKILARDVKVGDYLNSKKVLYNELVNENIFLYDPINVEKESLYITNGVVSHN
Chain of M1^C-Trx-H6 (AceL-TerL Int^C mutant M1: N46D, L55Q) [thioredoxin: P0AA25] (P0AA25 other isoform, or with tags, fused parts or gaps N46D L55Q N46D L55Q): as the sequence (P0AA25 other isoform, or with tags, fused parts or gaps S38G N46I N54D L55Q S38G N46I N54D L55Q) above, with G13S, I21D, D29N counted along it

| Binder | splicing rate at 8° C. against the M86 DnaB mutant intein [1] [fold higher] | splicing rate at 8° C. against the unevolved wild-type AceL-TerL intein [1] [fold higher] | splicing yield at 8° C. [1] [%] | splicing rate at 37° C. against the wild-type [2] [fold faster] | splicing rate at 37° C. against the wild-type [3] [fold faster] |
| --- | --- | --- | --- | --- | --- |
| {FI}-KKEFECVYGDTMVETEDGKIKIEDLYKRLA [pepWT^N (FI-KKEFE-IntN), synthetic peptide with the Int^N of the AceL-TerL intein] | 13 | 15 | 80 to 95 | – | – |
| {FI}-KKEFECVSGDTMVETEDGKIKIEDLYKRLA [pepM3^N (FI-KKEFE-IntN with the M3 Int^N, Y3S)] | – | – | – | 29 | 56 |
